Assay results published in patent US20220017617A1 (SHANGHAI EPIMAB BIOTHERAPEUTICS, published 2022).
One block for each binder: values may come before it.

Key:
[1] = molecular target: T1, recombinant human PD-L1 (Novoprotein) (human, UniProt Q9NZQ7 19-239, limits assumed); assay: BLI (Octet RED96), FIT-Ig captured on anti-human IgG Fc sensors, antigen in solution, 1:1 fit
T1 construct: Bought reagent; also called Programmed Death Ligand 1; CD274
Method: (§1) Briefly, each parental mAb and FIT-Ig was characterized for affinities and binding kinetics by Octet®RED96 biolayer interferometry (Pall FortéBio LLC). Each parental mAb and FIT-Ig were captured by Anti-Human IgG Fc Capture (AHC) Biosensors (Pall) at a concentration of 100 nM for 30 seconds. Sensors were then dipped into running buffer (1X, pH 7.2, PBS, 0.05% Tween 20, 0.1% BSA) for 60 seconds to check baseline. Binding was measured by dipping sensors into […] recombinant human PD-L1 (Novoprotein) or recombinant human EGFR (Sino Biological Inc) both ranging from 1 nM to 200 nM. Dissociation was followed by dipping sensors into running buffer for 1200 seconds. The association and dissociation curves were fitted to a 1:1 Langmuir binding model using ForteBio Data Analysis software (Pall).

[2] = molecular target: T2, recombinant human EGFR (Sino Biological Inc) (human, UniProt P00533 25-645); assay: as above
T2 construct: Bought reagent; also called epidermal growth factor receptor
Method: as §1

[3] = molecular target: T1, recombinant human PD-L1 (Novoprotein); assay: BLI (Octet RED96), antibody captured on anti-human IgG Fc sensors, antigen in solution, 1:1 fit
Method: as §1

[4] = molecular target: T1, recombinant human PD-L1 (Novoprotein); assay: BLI (Octet RED96), comparison of KD values
Method: as §1

[5] = molecular target: T2, recombinant human EGFR (Sino Biological …); assay: BLI (Octet RED96), comparison of KD values
Method: as §1

T1 sequence (Q9NZQ7 19-239 limits assumed): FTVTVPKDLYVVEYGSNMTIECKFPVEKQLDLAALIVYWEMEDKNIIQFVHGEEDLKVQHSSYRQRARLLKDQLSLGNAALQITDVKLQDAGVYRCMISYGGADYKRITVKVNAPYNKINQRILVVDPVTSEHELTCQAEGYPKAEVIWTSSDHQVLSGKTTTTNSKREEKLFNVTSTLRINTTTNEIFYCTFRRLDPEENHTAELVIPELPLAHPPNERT

- Kd [1]: 11.1 nM
- koff [1]: 0.0156 s⁻¹
- kon [1]: 1.4e+06 M⁻¹ s⁻¹
- Kd [2]: 0.379 nM
- koff [2]: 6.14e-05 s⁻¹
- kon [2]: 162000 M⁻¹ s⁻¹
B1: PD-L1/EGFR FIT-Ig5 (bispecific antibody, human IgG1, kappa)
heavy: not shown
chain: QVQLVQSGAEVKKPGASVKVSCKASGYTFTDYGFSWVRQAPGQGLEWMGWITAYNGNTNYAQKLQGRVTMTTDTSTSTVYMELRSLRSDDTAVYYCARDYFYGMDVWGQGTTVTVSSASTKGPSVFPLAPSSKSTSGGTAALGCLVKDYFPEPVTVSWNSGALTSGVHTFPAVLQSSGLYSLSSVVTVPSSSLGTQTYICNVNHKPSNTKVDKKVEPKSC
light: not shown
notes: Six-chain hexamer with no linkers; Human IgG1 Fc

- Kd [3]: 12.5 nM
- koff [3]: 0.0122 s⁻¹
- kon [3]: 979000 M⁻¹ s⁻¹
B2: anti-PD-L1 monoclonal antibody 3G10 (parental) (antibody, V domains shown)
VH: QVQLVQSGAEVKKPGASVKVSCKASGYTFTDYGFSWVRQAPGQGLEWMGWITAYNGNTNYAQKLQGRVTMTTDTSTSTVYMELRSLRSDDTAVYYCARDYFYGMDVWGQGTTVTVSS
VL: EIVLTQSPATLSLSPGERATLSCRASQSVSSYLVWYQQKPGQAPRLLIYDASNRATGIPARFSGSGSGTDFTLTISSLEPEDFAVYYCQQRSNWPRTFGQGTKVEIK
notes: It was captured by anti-human IgG Fc sensors; also called mAb 3G10; parental anti-PD-L1 mAb 3G10

- KD higher than that of the parental mAb 3G10 [4]: ~30%
- KD lower than that of the parental panitumumab [5]: ~25%
- Kd [1]: 16.3 nM
- koff [1]: 0.0144 s⁻¹
- kon [1]: 886000 M⁻¹ s⁻¹
- Kd [2]: 0.491 nM
- koff [2]: 0.000107 s⁻¹
- kon [2]: 218000 M⁻¹ s⁻¹
B3: EGFR/PD-L1 FIT-Ig6 (bispecific antibody, human IgG1, kappa)
heavy: not shown
chain: QVQLQESGPGLVKPSETLSLTCTVSGGSVSSGDYYWTWIRQSPGKGLEWIGHIYYSGNTNYNPSLKSRLTISIDTSKTQFSLKLSSVTAADTAIYYCVRDRVTGAFDIWGQGTMVTVSSASTKGPSVFPLAPSSKSTSGGTAALGCLVKDYFPEPVTVSWNSGALTSGVHTFPAVLQSSGLYSLSSVVTVPSSSLGTQTYICNVNHKPSNTKVDKKVEPKSC
light: not shown
notes: as for B1
